# Source: publication PMC9132474 (Science Advances, 2022)
# B1: human sodium-proton exchanger 3 (NHE3/SLC9A3) (natural protein, UniProt P48764 26-834, looked up)
# chain: GGVEVEPGGAHGESGGFQVVTFEWAHVQDPYVIALWILVASLAKIGFHLSHKVTSVVPESALLIVLGLVLGGIVWAADHIASFTLTPTVFFFYLLPPIVLDAGYFMPNRLFFGNLGTILLYAVVGTVWNAATTGLSLYGVFLSGLMGDLQIGLLDFLLFGSLMAAVDPVAVLAVFEEVHVNEVLFIIVFGESLLNDAVTVVLYNVFESFVALGGDNVTGVDCVKGIVSFFVVSLGGTLVGVVFAFLLSLVTRFTKHVRIIEPGFVFIISYLSYLTSEMLSLSAILAITFCGICCQKYVKANISEQSATTVRYTMKMLASSAETIIFMFLGISAVNPFIWTWNTAFVLLTLVFISVYRAIGVVLQTWLLNRYRMVQLEPIDQVVLSYGGLRGAVAFALVVLLDGDKVKEKNLFVSTTIIVVFFTVIFQGLTIKPLVQWLKVKRSEHREPRLNEKLHGRAFDHILSAIEDISGQIGHNYLRDKWSHFDRKFLSRVLMRRSAQKSRDRILNVFHELNLKDAISYVAEGERRGSLAFIRSPSTDNVVNVDFTPRSSTVEASVSYLLRENVSAVCLDMQSLEQRRRSIRDAEDMVTHHTLQQYLYKPRQEYKHLYSRHELTPTEDEKQDREIFHRTMRKRLESFKSTKLGLNQNKKAAKLYKRERAQKRRNSSIPNGKLPMESPAQNFTIKEKDLELSDTEEPPNYDEEMSGGIEFLASVTKDTASDSPAGIDNPVFSPDEALDRSLLARLPPWLSPGETVVPSQRARTQIPYSPGTFCRLMPFRLSSKSVDSFLQADGPEERPPAALPESTHM
# Target: the molecule itself
# Assay: cryo-EM structure
protein,measurement,value
B1,stoichiometry N,2
